From patent publication US20220267427A1 (SYSMEX, published 2022)
Values belong to the binder of their own block, whether it stands above or below them. Where no end group is shown, it is not given here. The star is where a group is joined. Biotin = O=C1N[C@H]2[C@H](CS[C@H]2CCCCC(=O)*)N1

Assays:
[1] = target: T1, Peptide 10 (human); assay: solid phase ELISA; biotinylated peptide on plate, antibody 2 ug/ml
T1 peptide: Biotin-VVTTQSAEVGAAETTLTE
Method: (§1) (1) The peptides shown in Table 2 were synthesized, and biotin was added to the N-terminal side. (2) The synthesized peptides were dissolved in 80% DMSO solution and further diluted to 1 μg/ml with PBST. (3) After washing an ELISA plate three times with PBST, a biotinylated peptide was added thereto at 100 μL/well, and the plate was allowed to stand at room temperature for 1 hour to immobilize the peptide. Thereafter, the plate was washed three times with PBST, and Buffer I′ (10 mM NaH₂PO₄.2H₂O, 149.7 mM NaCl, 2.5 mM EDTA 2Na, 0.10% BSA, pH 7.0) was added thereto at 200 μL/well to prepare a plate stored at 4° C. overnight. (4) The plate was washed three times with PBST, and an antibody diluted to 2 μg/ml was added thereto at 50 μL/well, followed by shaking at room temperature for 1 hour. (5) The plate was washed three times with PBST, and an Anti-Mouse IgG POD antibody diluted about 5000 fold with Buffer I′ (10 mM NaH₂PO₄.2H₂O, 149.7 mM NaCl, 2.5 mM EDTA 2Na, 0.10% BSA, pH 7.0) was added thereto at 50 μL/well, followed by shaking at room temperature for 1 hour. (6) The plate was washed three times with PBST, TMB Mix (1-step Ultra TMB-ELISA (Thermo Scientific):3% H₂O₂: Phosphate-Citrate buffer (Sigma)=15:0.15:14.85) was added thereto at 100 μL/well, and the mixture was reacted at room temperature for 10 minutes. Thereafter, 1 M H₂SO₄ was added thereto at 100 μL/well to stop the reaction. (7) Absorbance of the reaction solution at 450 nm was measured with a plate reader.

[2] = target: Peptide 6 (human, biotin added to the N-terminal side); assay: as above
Method: as §1

[3] = target: Peptide 8 (human, biotin added to the N-terminal side); assay: as above
Method: as §1

[4] = target: T2, Peptide 7 (human); assay: as above
T2 peptide: Biotin-NREELDKYWSQQIEESTT
Method: as §1

[5] = target: T3, Peptide 12 (human); assay: as above
T3 peptide: Biotin-ETTLTELRRTVQSLEIDL
Method: as §1

[6] = target: T4, Peptide 14 (human); assay: as above
T4 peptide: Biotin-SLEIDLDSMRNLKASLEN
Method: as §1

[7] = target: T5, Peptide 9 (human); assay: as above
T5 peptide: Biotin-IEESTTVVTTQSAEVGAA
Method: as §1

[8] = target: T6, Peptide 15 (human); assay: as above
T6 peptide: Biotin-DSMRNLKASLENSLREVE
Method: as §1

[9] = target: T7, Peptide 17 (human); assay: as above
T7 peptide: Biotin-SLREVEARYALQMEQLNG
Method: as §1

[10] = target: T8, Peptide 13 (human); assay: as above
T8 peptide: Biotin-LRRTVQSLEIDLDSMRNL
Method: as §1

[11] = target: T9, Peptide 18 (human); assay: as above
T9 peptide: Biotin-ARYALQMEQLNGILLHLE
Method: as §1

[12] = target: T10, Peptide 16 (human); assay: as above
T10 peptide: Biotin-KASLENSLREVEARYALQ
Method: as §1

[13] = target: T11, Peptide 3 (human); assay: as above
T11 peptide: Biotin-APKSQDLAKIMADIRAQY
Method: as §1

[14] = target: T12, Peptide 11 (human); assay: as above
T12 peptide: Biotin-AEVGAAETTLTELRRTVQ
Method: as §1

[15] = target: T13, Peptide 4 (human); assay: as above
T13 peptide: Biotin-LAKIMADIRAQYDELARK
Method: as §1

[16] = target: T14, fCK18 in apoptosis-induced HepG2 cell culture supernatant (human, UniProt P05783 239-397); assay: HISCL sandwich immunoassay; K18-624 magnetic microbeads capture, K18-328Fab-ALP detector; fCK18 0.74 ng/mL
T14 construct: Natural CK18 fragment from the culture supernatant of apoptosis-induced HepG2 cells (band around 18 KDa); also called fCK18 in apoptosis-inducing cells
T14 sequence: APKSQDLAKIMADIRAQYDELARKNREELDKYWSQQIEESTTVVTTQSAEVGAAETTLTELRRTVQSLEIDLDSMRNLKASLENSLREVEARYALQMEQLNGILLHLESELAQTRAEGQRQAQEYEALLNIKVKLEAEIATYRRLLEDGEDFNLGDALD

[17] = target: T15, Peptide 25 (human); assay: solid phase ELISA; biotinylated peptide on plate, antibody 2 ug/ml
T15 peptide: Biotin-VKLEAEIATYRRLLEDGE
Method: as §1

[18] = target: T16, Peptide 26 (human); assay: as above
T16 peptide: Biotin-IATYRRLLEDGEDFNLGD
Method: as §1

[19] = target: T17, Peptide 27 (human); assay: as above
T17 peptide: Biotin-LLEDGEDFNLGDALD
Method: as §1

[20] = target: T14, fCK18 in apoptosis-induced HepG2 cell …; assay: plate ELISA with K18-624 magnetic microbeads, K18-328Fab-ALP detector; fCK18 182.28 ng/mL
Method: Measurement samples of 3-fold dilution series (3-fold to 6561-fold dilution) were prepared from the apoptosis-induced HepG2 cell culture supernatant with a diluent (TBS, pH 7.5, 2% BSA), and fCK18 was measured. […] Based on the prepared calibration curve, fCK18 in the measurement sample was measured.
This solution was added to an ELISA plate at 25 μL/well, then each measurement sample was added at 25 μL/well, and the plate was incubated (1500 rpm, RT, 20 min). […] (3) After washing the plate, the HISCL (registered trademark) R4 reagent was added thereto at 50 μL/well, and then the mixture was stirred (1500 rpm, RT, 1 min). Thereafter, the HISCL (registered trademark) R5 reagent was added at 100 μL/well, and then the mixture was stirred (1000 rpm, RT, 10 sec). (4) Luminescence intensity was measured with a plate reader.

Abs450 [1]: 0 | Abs450 [2]: 0.01 | Abs450 [3]: -0.01 | Abs450 [4]: 0 | Abs450 [5]: 0 | Abs450 [6]: -0.01 | Abs450 [7]: -0.01 | Abs450 [8]: 0 | Abs450 [9]: 1.55 | Abs450 [10]: 0.01 | Abs450 [11]: 0.02 | Abs450 [12]: 0.04 | Abs450 [13]: 0.04 | Abs450 [14]: 0.01 | Abs450 [15]: 0.01
B1: K18-328 antibody (antibody, V domains shown)
VH: QVHLQQSAAELARPGASVKMSCKASGYTFTNYTIHWIKQRPGQGLEWIGYINPSSGYTDYNQNFKDKTTLTADKSSTTVYMQLSSLTSEDSAVYYCARQIPFAYWGQGTLVTVSA
VL: not shown
notes: Mouse monoclonal antibody from a hybridoma (immunogen full length rCK18)

S/N ratio [16]: 9.4 | Abs450 [17]: 0.14 | Abs450 [18]: 0.14 | Abs450 [19]: 2.34 | S/N ratio [20]: 5560
B2: K18-624 antibody (antibody, V domains shown)
VH: DVQLVESGGGLVQPGGSRKLSCAASGFTFSSFGMHWVRQAPEKGLEWVAYISSGSTTIYYADTVKGRFTISRDNPKNTLFLQMTSLRSEDTAMYYCARRGMITTGAWFAYWGQGTLVTVSA
VL: DILLTQSPAILSVSPGERVSFSCRASQRIGTSIHWYQQRTNGSPRLLIKYASESISGIPSRFSGSGSGTDFTLSINSVESEDIADYYCQQSYIWPFTFGSGTKLEIK
notes: Mouse monoclonal antibody from a hybridoma (Balb/C mouse immunised with Peptide 1-KLH)
